Assay results reported in article PMC2697266.

Molecular target: H3_(1-15)K4me3 peptide with an added C-terminal Tyr (UniProt P68431)
Experiment: ITC

Kd: 750 nM
Substance: Recombinant JARID1A_(PHD3) protein used for calorimetry (domain or fragment)
